According to the supplement of paper PMC9732359:
± gives the uncertainty stated by the source.

Experiment: protein stability index of a GFP-peptide fusion (yeast GPS) (PSI 1-4); higher = more stable; sorted into four equal gates, so the index is relative within each strain
Outline: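 Tiled 17-residue yeast protein peptides were fused downstream of GFP in a plasmid that also expresses Cherry, and the pooled library was carried in yeast. Mid-log cultures in leucine-free medium were sorted into four equal gates by GFP/Cherry fluorescence ratio, and plasmids from each gate were PCR-amplified and Illumina-sequenced, with reads assigned to strains by barcodes. The protein stability index for each peptide was each gate's read frequency times its gate number, summed.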

Sequence | protein stability index (doa10∆) | protein stability index (pdr5∆) | protein stability index (san1∆) | protein stability index (ubr1∆)
VVEACGNIVAELAQDPQ [YCS4] | 2.75 ± 0.082 | 3.38 ± 0.15 | 3.04 ± 0.1 | 2.12 ± 0.093
VVKGRVEKTLLSDVAFY [RPO31] | 2.16 ± 0.22 | 3.14 ± 0.23 |  | 2.52 ± 0.15
VVRRRFRGNISQPKIGY [RPL32] | 2.85 ± 0.096 | 2.88 ± 0.06 | 2.9 ± 0.067 | 2.92 ± 0.05
VVSCSQHGFEVQVGPMK [RPB7] | 3.09 ± 0.12 | 3.15 ± 0.098 | 3.02 ± 0.089 | 3.23 ± 0.12
VVVKNWGAETDELSMIM [RPS12] | 3.35 ± 0.14 | 3.4 ± 0.14 | 3.23 ± 0.087 | 3.15 ± 0.14
VYANNPEVSDDGGLEEE [SIR3] | 2.97 ± 0.13 | 2.87 ± 0.12 | 2.52 ± 0.14 | 3.04 ± 0.09
VYGEGTSRVTGILLLDS [YJL039C/NUP192] | 3.19 ± 0.19 | 3.31 ± 0.091 |  | 3.44 ± 0.091
VYKDNLSFIQVRIDLGT [RPO31] | 1.28 ± 0.071 | 1.58 ± 0.074 | 1.79 ± 0.1 | 1.52 ± 0.082
VYLSLLDKDSSQSSAAA [RPN6] | 3 ± 0.16 | 3.21 ± 0.069 |  | 3.03 ± 0.071
VYLTAVLEYLAAEILEL [HTA1] | 2.47 ± 0.12 | 2.43 ± 0.1 | 2.21 ± 0.09 | 2.61 ± 0.075
VYSVDPLEKITDAYLDQ [PRP8] | 3.33 ± 0.17 | 3.11 ± 0.15 | 2.98 ± 0.1 | 3.15 ± 0.15
WALKSSLNSMTNAKLPN [RGR1] | 2.74 ± 0.092 | 2.77 ± 0.13 | 3.17 ± 0.052 | 2.39 ± 0.05
WDLQLQEKESQIQLAES [SMC4] | 3.05 ± 0.056 | 3.08 ± 0.076 | 2.82 ± 0.082 | 3.07 ± 0.06
WGVNLPAHTVIIKGTDV [BRR2] | 2.82 ± 0.086 | 2.79 ± 0.13 | 2.32 ± 0.083 | 2.58 ± 0.058
WIAMRREKRDRTHFKRM [PRP8] | 1.99 ± 0.079 | 2.54 ± 0.078 | 2.04 ± 0.2 | 1.93 ± 0.065
WKDFTVEIAFLFRAIYL [YCG1] | 2.36 ± 0.1 | 2.36 ± 0.064 | 2.48 ± 0.1 | 2.26 ± 0.071
WKLLNQLVLRGLLSQAI [YJR042W/NUP85] | 2.01 ± 0.18 | 1.3 ± 0.076 | 1.28 ± 0.11 | 1.17 ± 0.1
WKPNPSYDVENVNSRNQ [SRB5] | 2.96 ± 0.084 | 2.95 ± 0.14 | 3 ± 0.11 | 3.3 ± 0.085
WLEEYHPKLIKNKSGKI [FAS1] | 1.59 ± 0.12 | 1.83 ± 0.075 | 1.42 ± 0.092 | 1.67 ± 0.046
WLKNKFAEENITHKLTK [BRR2] | 3.13 ± 0.085 | 3.03 ± 0.06 | 2.85 ± 0.047 | 3.01 ± 0.078
WPTTHKYPLGHFVRDLG [DIS3] | 2.46 ± 0.063 | 2.58 ± 0.086 | 3.07 ± 0.08 | 2.49 ± 0.11
WREIIEKVRDYENSISK [IRR1] | 2.86 ± 0.076 | 2.59 ± 0.085 | 2.39 ± 0.061 | 2.67 ± 0.047
WRKWNVKVNHNEKRYAT [RPL4A] | 2.36 ± 0.24 | 2.94 ± 0.16 | 1.59 ± 0.13 | 1.94 ± 0.23
WRQFGNRMQISPDQMRN [GRR1] | 3.07 ± 0.12 | 3.14 ± 0.12 | 2.89 ± 0.11 | 2.75 ± 0.11
WVKKFKWAGIKTRKFVF [CYT1] | 1.14 ± 0.12 | 1.51 ± 0.1 |  | 1.27 ± 0.074
WYQFSNSKDHKKITLQL [SIN4] | 3.35 ± 0.13 | 3.47 ± 0.12 | 2.47 ± 0.22 | 2.86 ± 0.068

Sequence | protein stability index (doa10∆) | protein stability index (pdr5∆) | protein stability index (san1∆) | protein stability index (ubr1∆)
YDDFIYLSDLKQFFQMT [PCI8] | 2.5 ± 0.075 | 2.89 ± 0.073 | 2.61 ± 0.084 | 2.87 ± 0.051
YDLLISTLTTISGNPPL [SRB5] | 2.43 ± 0.052 | 2.3 ± 0.045 | 1.77 ± 0.07 | 2.46 ± 0.04
YDNGQVFPSSILDITDE [RPP0] | 1.91 ± 0.048 | 1.79 ± 0.077 | 2.42 ± 0.093 | 1.32 ± 0.073
YDRATLTQLLSMMSDGI [RPO31] | 2.29 ± 0.062 | 2.44 ± 0.053 | 2.56 ± 0.054 | 1.66 ± 0.038
YDVLHDVFTINPHQKDQ [YML103C/NUP188] |  | 2.15 ± 0.098 | 2.12 ± 0.13 | 2.61 ± 0.25
YEGMKLGNHAITIDSVV [YMR129W/POM152] | 2.27 ± 0.094 | 1.36 ± 0.12 | 1.64 ± 0.16 | 2 ± 0.15
YELEFDTPTSGKHNLTI [BRR2] | 3.1 ± 0.068 | 3.04 ± 0.076 | 3.18 ± 0.061 | 3.23 ± 0.065
YENKDNLTAGIIVAGYD [PRE3] | 2.71 ± 0.047 | 2.91 ± 0.05 | 2.98 ± 0.04 | 2.78 ± 0.036
YERRFGPYFVGPVVAGI [PUP3] | 3.25 ± 0.22 | 2.81 ± 0.18 |  | 3.11 ± 0.16
YESQTFSSKNEWRKSAI [PRP8] | 3.23 ± 0.076 | 3.28 ± 0.063 | 3.29 ± 0.06 | 3.01 ± 0.059
YGEAPTSPGFGVSSPGF [RPO21] | 3.06 ± 0.14 | 3.45 ± 0.14 | 2.93 ± 0.17 | 3.17 ± 0.054
YGEATSPFGAYGEAPTS [RPO21] | 2.48 ± 0.065 | 2.58 ± 0.049 | 2.9 ± 0.064 | 2.79 ± 0.054
YGESDIHFREHQSELII [YMR129W/POM152] | 2.31 ± 0.089 | 2.89 ± 0.096 | 2.21 ± 0.13 | 2.49 ± 0.077
YGIFGEGVEYSFLHVDD [POP8] | 2.25 ± 0.084 | 2.31 ± 0.072 | 1.92 ± 0.12 | 2.71 ± 0.049
YGIVAMAATATDKIGRS [FAS2] | 1.64 ± 0.063 | 1.82 ± 0.06 | 1.65 ± 0.092 | 2.26 ± 0.051
YGPPGTGKTLLAKAVAA [RPT4] | 2.17 ± 0.069 | 2.23 ± 0.06 | 1.98 ± 0.089 | 1.93 ± 0.05
YGSSPKLLATSTKIIML [SRB8] | 1.59 ± 0.065 | 1.7 ± 0.063 | 1.63 ± 0.16 | 1.24 ± 0.069
YHLHPTFANPNRTFTDP [TAF14] | 1.94 ± 0.068 | 2.02 ± 0.055 | 2.21 ± 0.1 | 1.7 ± 0.036
YHSAGGRDKHALSLLYH [SSN3] | 3.12 ± 0.082 | 3.02 ± 0.066 | 3.19 ± 0.059 | 3.32 ± 0.066
YHTNPGHSQFTSHYQNY [RPN4] | 2.82 ± 0.067 | 2.9 ± 0.089 | 3.02 ± 0.079 | 3.04 ± 0.054
YIELLPNADDIRDSIPQ [DIS3] | 2.83 ± 0.075 | 2.85 ± 0.068 | 2.87 ± 0.078 | 2.75 ± 0.039
YIHLAYSRSVDKEWVFA [SSN2] | 1.81 ± 0.079 | 1.5 ± 0.057 | 1.84 ± 0.091 | 1.72 ± 0.038
YIKSMDLISKKTKTSLL [RPR2] | 2.96 ± 0.081 | 2.66 ± 0.079 | 2.78 ± 0.075 | 2.79 ± 0.051
YINVNPQEETITFLIEK [ECM29] | 3.23 ± 0.095 | 2.96 ± 0.089 | 2.91 ± 0.064 | 3.17 ± 0.06
YIYLSHETLARSSEEIN [RPN3] | 3.15 ± 0.26 |  |  | 3.15 ± 0.18
YKAISAQADKQDISSST [FAS2] | 2.91 ± 0.073 | 2.87 ± 0.058 | 2.3 ± 0.062 | 2.83 ± 0.045
